Data published in the RNAGym collection of RNA variant scans (doi:10.1093/molbev/msab373).

B1: Azoarcus group I ribozyme (parent)
chain: GUGCCUUGCGCCGGGAAACCACGCAAGGGAUGGUGUCAAAUUCGGCGAAACCUAAGCGCCCGCCCGGGCGUAUGGCAACGCCGAGCCAAGCUUCGGCGCCUGCGCCGAUGAAGGUGUAGAGACUAGACGGCACCCACCUAAGGCAAACGCUAUGGUGAAGGCAUAGUCCAGGGAGUGGCGAAAGUCACACAAACCGG

Variants of: B1
Assay: reverse-splicing fitness (ratio to wild type); higher = more active; in vitro selection; Mg2+ level not given
Summary of the method: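 An in vitro group I ribozyme library with randomized positions was T7-transcribed and gel-purified. In triplicate, 10 pmol RNA in EPPS pH 7.5 was reacted with 50 pmoles of a 30-nt RNA substrate for 1 h at 37 °C across several added MgCl2 levels (1–48 mM), then stopped with EDTA. Products were reverse transcribed from a substrate-complementary primer, PCR-amplified and sequenced (HiSeq 4000). Fitness is a variant's read proportion after selection over that before, normalised to wild type.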

Compared with C82A A111U A145C C150G C169G U176A, C82A A111U A145C C150G C169G U176C is lower in reverse-splicing fitness: 0.00985 for the first, 0.00829 for the second.

Going from C82A A111U A120U C150A C169U U176C to C82A A111U A120U C150A C169U U176G, the reverse-splicing fitness falls from 0.00489 to 0.00224.

First: C82A A111U A120U C150A C169U U176A
Second: C82A A111U A120U C150U U176A
The reverse-splicing fitness of the first is lower: 0.00587 for the first, 0.00753 for the second.

Going from C82A A111U A120U C150U U176C to C82A A111U A120U C150U U176G, the reverse-splicing fitness falls from 0.00953 to 0.00345.

First: C82A A111U A120U A145C C150U C169A
Second: C82A A111U A120U A145C C150U C169G
The reverse-splicing fitness of the first is lower: 0.00277 for the first, 0.0029 for the second.

First: C82A A111U A120U A145C C150U C169U
Second: C82A A111U A120U A145G C150G C169U
The reverse-splicing fitness of the first is lower: 0.00328 for the first, 0.00854 for the second.

Going from C82A A111U A120U A145G C150G C169A to C82A A111U A120U A145G C150G C169G, the reverse-splicing fitness falls from 0.00923 to 0.00757.

Compared with C82A A111U A145C C150G U176C, C82A A111U A145C C150G U176A is lower in reverse-splicing fitness: 0.0163 for the first, 0.0104 for the second.

Compared with C82A A111U A145C C150G U176G, C82A A111U A120G C169A U176G is higher in reverse-splicing fitness: 0.00428 for the first, 0.00506 for the second.

First: C82A A111U A120U A145U C169U
Second: C82A A111U A120U A145U C169G
The reverse-splicing fitness of the first is higher: 0.0039 for the first, 0.00304 for the second.

First: C82A A111U A120U A145U C169A
Second: C82A A111U A120U A145G C150A C169U
The reverse-splicing fitness of the first is lower: 0.00249 for the first, 0.00475 for the second.

Compared with C82A A111U A120U A145G C150A C169A, C82A A111U A120U A145G C150A C169G is lower in reverse-splicing fitness: 0.00807 for the first, 0.00618 for the second.

First: C82A A111U A145C C169G
Second: C82A A111U A145C C169U
The reverse-splicing fitness of the first is lower: 0.00993 for the first, 0.0123 for the second.

First: C82A A111U A145C C169A
Second: C82A A111U A120U A145G C169G U176C
The reverse-splicing fitness of the first is higher: 0.00733 for the first, 0.00486 for the second.

First: C82A A111U A120U A145G C169G U176A
Second: C82A A111U A120U A145G C169G U176G
The reverse-splicing fitness of the first is higher: 0.00391 for the first, 0.00182 for the second.

Compared with C82A A111U A120U C150U C169A U176C, C82A A111U A120U C150U C169A U176G is lower in reverse-splicing fitness: 0.00344 for the first, 0.00226 for the second.

Compared with C82A A111U A120U C150U C169A U176A, C82A A111U A120U A145U C169G U176A is lower in reverse-splicing fitness: 0.00575 for the first, 0.00291 for the second.

Going from C82A A111U A120U A145U C169G U176G to C82A A111U A120U A145U C169G U176C, the reverse-splicing fitness rises from 0.00199 to 0.00323.

First: C82A A111U A145C C150A C169A
Second: C82A A111U A145C C150A C169U
The reverse-splicing fitness of the first is lower: 0.00947 for the first, 0.011 for the second.

Compared with C82A A111U A145C C150A C169G, C82A A111U A120U A145G C150A C169G U176G is lower in reverse-splicing fitness: 0.00849 for the first, 0.003 for the second.

Compared with C82A A111U A120U A145G C150A C169G U176C, C82A A111U A120U A145G C150A C169G U176A is higher in reverse-splicing fitness: 0.00688 for the first, 0.0104 for the second.

First: C82A A111U A120G U176A
Second: C82A A111U A120G U176G
The reverse-splicing fitness of the first is higher: 0.0127 for the first, 0.00705 for the second.

Compared with C82A A111U A120G U176C, C82A A111U A120U A145G C150G is lower in reverse-splicing fitness: 0.0189 for the first, 0.00842 for the second.

Compared with C82A A111U A120U A145G C150U, C82A A111U A120U A145G C150A is lower in reverse-splicing fitness: 0.0195 for the first, 0.00899 for the second.

First: C82A A111U A120U A145G U176G
Second: C82A A111U A120U A145G U176A
The reverse-splicing fitness of the first is lower: 0.00319 for the first, 0.00766 for the second.

First: C82A A111U A120U A145G U176C
Second: C82A A111U A145C C150U U176C
The reverse-splicing fitness of the first is lower: 0.0114 for the first, 0.0396 for the second.

First: C82A A111U A145C C150U U176G
Second: C82A A111U A145C C150U U176A
The reverse-splicing fitness of the first is lower: 0.0107 for the first, 0.0254 for the second.

Compared with C82A A111U A120U A145G C150U C169G U176A, C82A A111U A120U A145G C150U C169G U176G is lower in reverse-splicing fitness: 0.00984 for the first, 0.00271 for the second.

Compared with C82A A111U A120U A145G C150U C169G U176C, C82A A111U A145C C169A U176A is higher in reverse-splicing fitness: 0.00667 for the first, 0.0109 for the second.

Compared with C82A A111U A145C C169A U176C, C82A A111U A145C C169A U176G is lower in reverse-splicing fitness: 0.00816 for the first, 0.00702 for the second.

First: C82A A111U A145C C150U C169A U176G
Second: C82A A111U A145C C150U C169A U176A
The reverse-splicing fitness of the first is lower: 0.00747 for the first, 0.0133 for the second.

Compared with C82A A111U A145C C150U C169A U176C, C82A A111U A120U A145C C150U C169A U176G is lower in reverse-splicing fitness: 0.00736 for the first, 0.00224 for the second.

Compared with C82A A111U A120U A145C C150U C169A U176A, C82A A111U A120U A145C C150U C169A U176C is lower in reverse-splicing fitness: 0.00281 for the first, 0.00232 for the second.

First: C82A A111U A120U A145U U176C
Second: C82A A111U A120U A145U U176G
The reverse-splicing fitness of the first is higher: 0.0117 for the first, 0.00335 for the second.

Compared with C82A A111U A120U A145U U176A, C82A A111U A120U C150A U176G is lower in reverse-splicing fitness: 0.0073 for the first, 0.0037 for the second.

Compared with C82A A111U A120U C150A U176A, C82A A111U A120U C150A U176C is lower in reverse-splicing fitness: 0.00697 for the first, 0.00653 for the second.

Going from C82A A111U A120U A145C C169G to C82A A111U A120U A145C C169A, the reverse-splicing fitness falls from 0.00342 to 0.00224.

Going from C82A A111U A120U A145C C169U to C82A A111U A145C C150A U176A, the reverse-splicing fitness rises from 0.00338 to 0.0125.

Going from C82A A111U A145C C150A U176G to C82A A111U A145C C150A U176C, the reverse-splicing fitness rises from 0.00842 to 0.0157.

Compared with C82A A111U A145C C150A C169G U176A, C82A A111U A145C C150A C169G U176G is lower in reverse-splicing fitness: 0.029 for the first, 0.00831 for the second.

Going from C82A A111U A145C C150A C169G U176C to C82A A111U A120U A145G C150G C169A U176A, the reverse-splicing fitness falls from 0.0169 to 0.0119.

First: C82A A111U A120U A145G C150G C169A U176G
Second: C82A A111U A120U A145G C150G C169A U176C
The reverse-splicing fitness of the first is lower: 0.00618 for the first, 0.0099 for the second.
